Experiments:
Assay in all cases: enzyme inhibition kinetics
[1] = biological target: T1, Catalytic domain of human MMP-1 (MMP-1cat) (human, UniProt P03956 100-269)
T1 sequence (looked up): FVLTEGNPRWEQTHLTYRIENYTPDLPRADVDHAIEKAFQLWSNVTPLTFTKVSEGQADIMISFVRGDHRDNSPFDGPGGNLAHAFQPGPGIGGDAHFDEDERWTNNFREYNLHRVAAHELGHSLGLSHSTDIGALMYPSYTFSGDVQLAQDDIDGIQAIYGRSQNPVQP

[2] = biological target: Catalytic domain of human MMP-3 (MMP-3cat) (human, UniProt P08254 100-272)
[3] = biological target: T2, ADAMTS5-5 (human ADAMTS-5, catalytic and disintegrin domain, C-terminal FLAG-tag) (human, UniProt Q9UNA0 262-566)
T2 sequence (looked up): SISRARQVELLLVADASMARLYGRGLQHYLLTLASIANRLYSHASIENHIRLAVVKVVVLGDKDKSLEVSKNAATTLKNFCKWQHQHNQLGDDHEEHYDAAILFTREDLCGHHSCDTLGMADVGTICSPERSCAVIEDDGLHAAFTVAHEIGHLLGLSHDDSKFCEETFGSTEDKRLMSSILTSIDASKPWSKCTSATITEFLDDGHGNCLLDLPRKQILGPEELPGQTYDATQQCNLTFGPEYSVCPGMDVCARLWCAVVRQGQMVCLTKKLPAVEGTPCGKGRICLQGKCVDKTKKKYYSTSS

[4] = biological target: T3, ADAMTS5-1 (full-length human ADAMTS-5, C-terminal FLAG-tag) (human, UniProt Q9UNA0 262-930)
T3 sequence (looked up): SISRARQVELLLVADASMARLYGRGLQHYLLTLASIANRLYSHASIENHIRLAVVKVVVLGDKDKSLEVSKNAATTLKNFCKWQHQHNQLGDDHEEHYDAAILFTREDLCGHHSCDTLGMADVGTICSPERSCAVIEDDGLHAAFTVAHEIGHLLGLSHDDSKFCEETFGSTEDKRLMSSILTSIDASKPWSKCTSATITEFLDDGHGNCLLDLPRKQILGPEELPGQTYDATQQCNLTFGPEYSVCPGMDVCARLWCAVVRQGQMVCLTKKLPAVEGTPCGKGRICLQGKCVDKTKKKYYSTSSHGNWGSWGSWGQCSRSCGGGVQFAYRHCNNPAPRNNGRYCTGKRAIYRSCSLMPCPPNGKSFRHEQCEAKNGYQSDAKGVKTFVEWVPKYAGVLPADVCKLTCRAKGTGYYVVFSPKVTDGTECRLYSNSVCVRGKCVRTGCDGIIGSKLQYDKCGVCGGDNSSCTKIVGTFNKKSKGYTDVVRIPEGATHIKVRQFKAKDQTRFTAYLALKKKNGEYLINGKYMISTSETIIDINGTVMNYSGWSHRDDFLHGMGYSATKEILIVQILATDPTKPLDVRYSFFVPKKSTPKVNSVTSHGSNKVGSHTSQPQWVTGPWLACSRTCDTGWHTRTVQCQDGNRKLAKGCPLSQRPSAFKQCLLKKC

[5] = biological target: T4, ADAMTS4-1 (full-length human ADAMTS-4, C-terminal FLAG-tag) (human, UniProt O75173 213-837)
T4 sequence (looked up): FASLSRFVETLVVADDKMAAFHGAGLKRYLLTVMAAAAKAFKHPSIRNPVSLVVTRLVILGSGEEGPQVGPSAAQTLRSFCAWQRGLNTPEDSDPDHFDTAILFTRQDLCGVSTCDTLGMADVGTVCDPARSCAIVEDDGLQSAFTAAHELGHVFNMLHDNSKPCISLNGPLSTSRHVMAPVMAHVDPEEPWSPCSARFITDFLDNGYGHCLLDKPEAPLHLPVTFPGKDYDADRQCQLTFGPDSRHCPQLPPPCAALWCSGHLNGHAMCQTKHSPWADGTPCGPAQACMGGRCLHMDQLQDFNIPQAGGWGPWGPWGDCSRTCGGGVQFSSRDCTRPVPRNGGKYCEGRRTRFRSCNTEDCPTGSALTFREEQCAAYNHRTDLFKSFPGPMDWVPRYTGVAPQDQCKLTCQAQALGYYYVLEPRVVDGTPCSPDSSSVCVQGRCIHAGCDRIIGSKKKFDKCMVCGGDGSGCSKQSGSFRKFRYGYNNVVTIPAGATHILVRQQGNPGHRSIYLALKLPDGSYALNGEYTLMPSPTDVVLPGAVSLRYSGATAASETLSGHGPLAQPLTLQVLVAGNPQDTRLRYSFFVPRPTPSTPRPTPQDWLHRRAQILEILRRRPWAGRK

Chain of Catalytic domain of human MMP-3 (MMP-3cat) (P08254 100-272): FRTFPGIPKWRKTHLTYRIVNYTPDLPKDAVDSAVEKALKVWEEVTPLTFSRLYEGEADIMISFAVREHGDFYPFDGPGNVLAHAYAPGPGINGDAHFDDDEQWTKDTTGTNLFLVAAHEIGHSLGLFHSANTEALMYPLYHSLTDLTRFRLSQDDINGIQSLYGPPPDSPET

B1: FLAG-tagged glycosylated human TIMP-3 (full-length tissue inhibitor of metalloproteinases 3), expressed in HEK293 (natural protein, UniProt P35625 24-211, looked up)
chain: CTCSPSHPQDAFCNSDIVIRAKVVGKKLVKEGPFGTLVYTIKQMKMYRGFTKMPHVQYIHTEASESLCGLKLEVNKYQYLLTGRVYDGKMYTGLCNFVERWDQLTLSQRKGLNYRYHLGCNCKIKSCYYLPCFVTSKNECLWTDMLSNFGYPGYQSKHYACIRQKGGYCSWYRGWAPPDKSIINATDP
modifications: glycosylated (only the 27 kDa glycosylated form remained after purification; single N-glycosylation site in the C-terminal domain)
A Ki [1] of 1.1 nM, a Ki [2] of 1 nM and a Ki [3] of 1.89 nM were found for B1 in this work. For the same binder, the Ki [4] was 0.7 nM and the Ki [5] was 0.22 nM.

Reference: article PMC2835468 (Matrix biology : journal of the International Society for …, 2009)
